In paper PMC7948952, “Structural basis for multifunctional roles of human Ints3 C-terminal domain” (The Journal of Biological Chemistry, 2020):

Target: Ints3-555-976 R788E/K789E (human, UniProt Q68E01-2 555-976, R788E;K789E)
Assay: EMSA; not reduced vs WT (WT itself weak); up to 200 uM; 20 mM Hepes pH 7.4, 100 mM NaCl, 1 mM MgCl2, 1 mg/ml BSA, 2 mM DTT, 5% glycerol; on ice 30 min; 7.5 nM probe; native 5% PAGE in 1X TBE
Conditions: protein: recombinant; chain copies: 2; label: 5' 32P; single strand

Chain of Ints3-555-976 R788E/K789E (Q68E01 556-977 R789E/K790E): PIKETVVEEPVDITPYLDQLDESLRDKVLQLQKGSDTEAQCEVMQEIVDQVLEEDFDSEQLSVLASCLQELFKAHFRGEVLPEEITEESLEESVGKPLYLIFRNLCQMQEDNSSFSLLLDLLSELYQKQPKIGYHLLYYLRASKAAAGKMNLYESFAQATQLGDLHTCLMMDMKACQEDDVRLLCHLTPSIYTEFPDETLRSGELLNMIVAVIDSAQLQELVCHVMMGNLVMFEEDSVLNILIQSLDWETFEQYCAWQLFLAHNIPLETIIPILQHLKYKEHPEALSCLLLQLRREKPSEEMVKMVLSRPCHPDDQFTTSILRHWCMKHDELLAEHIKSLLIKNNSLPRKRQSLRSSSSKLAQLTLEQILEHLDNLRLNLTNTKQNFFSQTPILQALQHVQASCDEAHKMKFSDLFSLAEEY

TTTTTTTTTTTTTTTTTTTTTTTTTTTTTT (ssDNA) [dT30]: binds.
